{
  "source": "patent US8802630B2",
  "about": "“Method of treating brain injury” (Buddhist Tzu Chi General Hospital, priority 2011, dated 2014)",
  "key": {"[1]": {"experiment": "Evaluation of physiological parameters (MABP, heart rate, rectal temperature, blood gases)", "format": "in vivo, rats", "settings": "for RT (rectal temperature) / pCO2 / pO2 / pH: ICH + L-UCN 2.5 μg/kg i.p.; for decrease in MABP / increase in HR: 1.0 to 3.0 h post-treatment; for pH: arterial blood", "procedure": "Rats were randomly assigned for evaluation of physiological parameters including mean arterial blood pressure, blood gases, body weight changes and body temperature. Under urethane (urethane (1.0 g/kg bodyweight, intraperitoneally, Sigma-Aldrich) anesthesia, a femoral artery was cannulated with a PE-50 polyethylene tube for fluid supplementation and monitoring of arterial blood pressure and blood gas. Arterial blood pressure was recorded through an amplifier (MP35, BIOPAC system, Inc.) and stored in a PC computer. Body temperature (rectal temperature) was automatically maintained at 37.5±0.5° C. by a rectal temperature sensor and a heating pad (CMA-150, Sweden). The physiological parameters were measured before (baseline) and after treatment (UCN or Saline) 0.5, 1 and 3 hours."}, "[2]": {"tested_on": "autologous blood infusion-induced ICH rats", "experiment": "modified Neurological Severity Score (mNSS), autologous blood infusion ICH model", "format": "in vivo", "procedure": "(§1) The ICH refers to hemorrhage in the striatum, a part of the brain. Male Sprague-Dawley rats (250-300 g) anesthetized with chloral hydrate (0.4 g kg^−1 i.p., Sigma-Aldrich, St. Louis, Mo., USA). The blood infusion model of ICH was induced by intrastriatal (0.0 mm posterior, 3.0 mm right, 5.0 mm ventral to bregma skull surface) infusion of autologous blood (100 μl within 1 minute) and stereotaxic administration of bacterial collagenase VII-S into the striatum (MacLellan et al. 2008; Rosenberg et al. 1990). Briefly, bacterial collagenase VII-S (0.23 U in 1.0 μl sterile saline, Sigma-Aldrich) was infused into the striatum over a period of 10 minutes. The needle was kept in place for another 10 minutes to prevent backflow. The craniotomies were sealed with bone wax. The rats were allowed to recover in separate cages at room temperature.\n(§2) Rats were used in the assessment of the neurological abnormalities with a modified Neurological Severity Score (mNSS) method (Chen et al. 2001) by an investigator blinded to the experimental treatment scheme. The mNSS is a composite test of motor, sensory, and balance functions. The assessment was performed before and on 1, 3 and 7 days after the ICH. Neurological functions were graded on a scale of 0-18 (normal score, 0; maximal deficit score, 18)."}, "[3]": {"tested_on": "microglial cells", "experiment": "Immunohistochemistry of microglial activation (OX-42, ED-1)", "format": "in vivo, rats", "settings": "perihematomal region; L-UCN 2.5 μg/kg i.p.; day 3 post-ICH", "procedure": "Rats were used in immunohistochemistry on day 3 post-ICH. Rats were anesthetized as described above and transcardially perfused with cold 0.1 M phosphate buffer saline followed by cold 4% paraformaldehyde in 0.1 M phosphate-buffered saline. Brains were removed and immersed in 4% paraformaldehyde for 24 hours and 30% sucrose for another 24 hours. Coronal brain sections (20 μm thickness) were cut and collected from 0.0 to −2.0 mm AP to bregma using a cryostat (Leica CM 1900). Three 20 μm coronal sections, representing the core of the hematoma, were taken starting at 0.0 mm from bregma (the needle entry site). Additional adjacent serial coronal sections taken through the center of the hemorrhagic lesion were processed for the counting of marker-specific cells (Jung et al., 2004). Antibodies of OX-42 (1:100; BD, USA), ED-1 (1:100; BD, USA) were used as microglial markers, and NeuN (1:200, Chemicon, USA) was used as neuron marker. Tissues sections were incubated with the primary antibodies overnight at 4° C. […] The numbers of positive cells in the same focal plane were counted in 6 regions of interest around the ipsilateral striatum (perihematomal region, 1 mm^2) All cell counting was done by an independent investigator counted the positive cells."}, "[4]": {"tested_on": "IL-1β", "experiment": "Cytokine ELISA of ipsilateral striatal tissue", "format": "in vivo, rats", "settings": "L-UCN 2.5 μg/kg i.p.; days 1, 3 and 7 post-ICH; vs ICH+Saline", "procedure": "(§3) Rats were used for the cytokine assay by ELISA. The ipsilateral striatal tissues were collected before and on days 1, 3 and 7 days post-ICH. After homogenization in the lysis buffer (PRO-PREP™, iNtRON Biotechnology, Korea) and centrifuged at 12,000 g for 30 minutes, the supernatants were collected and stored frozen at −80° C. During quantification, the cytokines (TNFα, IL-1β and IL-6) were normalized to 100 μg of proteins in the supernatant using a commercial ELISA kit from R & D Systems (Minneapolis, Minn., USA) according to the manufacturer's instructions."}, "[5]": {"tested_on": "IL-6", "experiment": "Cytokine ELISA of ipsilateral striatal tissue", "format": "in vivo, rats", "settings": "L-UCN 2.5 μg/kg i.p.; day 1 post-ICH; vs ICH+Saline", "procedure": "as §3"}, "[6]": {"tested_on": "TNF-α", "experiment": "Cytokine ELISA of ipsilateral striatal tissue", "format": "in vivo, rats", "settings": "L-UCN 2.5 μg/kg i.p.; days 1, 3 and 7 post-ICH; vs ICH+Saline", "procedure": "as §3"}, "[7]": {"experiment": "Cerebral blood flow after bolus injection of UCN", "format": "in vivo", "settings": "UCN 25 μg/kg body weight"}, "[8]": {"tested_on": "collagenase-induced ICH rats", "experiment": "modified Neurological Severity Score (mNSS), collagenase-induced ICH model", "format": "in vivo", "procedure": "as §1, §2"}, "[9]": {"settings": "UCN 2.5 μg/kg i.p. 1 h after ICH"}},
  "note": "Where no end group is shown, it is not given here.",
  "data": [
    {"substance": "urocortin (DNPSLSIDLTFHLLRTLLELARTQSQRERAEQNRIIFDSV; ends and bridges not checked; UniProt P55089 83-122, looked up) [UCN, a 40-amino-acid endogenous neuropeptide, belongs to the corticotrophin releasing hormone (CRH) family]", "values": [
      {"measurement": "RT (rectal temperature)", "setting": "[1]; 0.5 h post-treatment", "result": "36.95 ± 0.03", "unit": "°C"},
      {"measurement": "pCO2", "setting": "[1]; 0.5 h post-treatment", "result": "45.07 ± 1.05", "unit": "mmHg"},
      {"measurement": "pO2", "setting": "[1]; 0.5 h post-treatment", "result": "105.24 ± 6.00", "unit": "mmHg"},
      {"measurement": "RT (rectal temperature)", "setting": "[1]; 1.0 h post-treatment", "result": "37.00 ± 0.05", "unit": "°C"},
      {"measurement": "pCO2", "setting": "[1]; 1.0 h post-treatment", "result": "42.60 ± 2.44", "unit": "mmHg"},
      {"measurement": "pO2", "setting": "[1]; 1.0 h post-treatment", "result": "107.28 ± 5.35", "unit": "mmHg"},
      {"measurement": "RT (rectal temperature)", "setting": "[1]; 3.0 h post-treatment", "result": "36.97 ± 0.02", "unit": "°C"},
      {"measurement": "pCO2", "setting": "[1]; 3.0 h post-treatment", "result": "43.25 ± 1.59", "unit": "mmHg"},
      {"measurement": "pO2", "setting": "[1]; 3.0 h post-treatment", "result": "107.90 ± 5.59", "unit": "mmHg"},
      {"measurement": "RT (rectal temperature)", "setting": "[1]; baseline", "result": "36.92 ± 0.05", "unit": "°C"},
      {"measurement": "pCO2", "setting": "[1]; baseline", "result": "46.73 ± 1.80", "unit": "mmHg"},
      {"measurement": "pO2", "setting": "[1]; baseline", "result": "100.00 ± 4.40", "unit": "mmHg"},
      {"measurement": "decrease in MABP", "setting": "[1]; [9]", "result": "≤ 25", "unit": "mm Hg"},
      {"measurement": "increase in HR", "setting": "[1]; [9]", "result": "≤ 35", "unit": "beats/min"},
      {"measurement": "mean arterial blood pressure", "setting": "[1]; UCN 5 μg i.c.v., over 3 hours", "result": "no significant difference"},
      {"measurement": "fall in mean arterial blood pressure (MABP)", "setting": "[1]; UCN 25 μg/kg body weight, bolus intraperitoneal injection", "result": "40-50 mmHg"},
      {"measurement": "fall of MABP", "setting": "[1]; UCN 25 μg/kg body weight, bolus intravenous injection, vs intraperitoneal", "result": "much more abrupt fall of MABP"},
      {"measurement": "decrease in MABP", "setting": "[1]; UCN 25 μg/kg i.p.", "result": "≤ 40", "unit": "mm Hg"},
      {"measurement": "increase in HR", "setting": "[1]; UCN 25 μg/kg i.p.", "result": "≤ 45", "unit": "beats/min"},
      {"measurement": "pH", "setting": "[1]; 0.5 h post-treatment", "result": "7.39 ± 0.01"},
      {"measurement": "pH", "setting": "[1]; 1.0 h post-treatment", "result": "7.42 ± 0.01"},
      {"measurement": "pH", "setting": "[1]; 3.0 h post-treatment", "result": "7.42 ± 0.01"},
      {"measurement": "pH", "setting": "[1]; baseline", "result": "7.37 ± 0.02"},
      {"measurement": "mNSS", "setting": "[2]; UCN 2.5 μg/kg i.p. 60 min after blood infusion ICH, vs ICH+Saline", "result": "greater reduction in mNSS"},
      {"measurement": "mNSS", "setting": "[2]; UCN 5 μg i.c.v. 1 h after blood infusion ICH, vs saline", "result": "greater reduction in mNSS"},
      {"measurement": "number of ED-1+ cells", "setting": "[3]", "result": "28.50±2.65", "unit": "cells/6 mm^2"},
      {"measurement": "number of OX-42+ microglial cells", "setting": "[3]", "result": "82.00±22.86", "unit": "cells/6 mm^2"},
      {"measurement": "IL-1β level of ipsilateral striatum", "setting": "[4]", "result": "significantly reduced"},
      {"measurement": "IL-6 level of ipsilateral striatum", "setting": "[5]", "result": "reduced"},
      {"measurement": "TNF-α level of ipsilateral striatum", "setting": "[6]", "result": "significantly reduced"},
      {"measurement": "reduction of the cerebral blood flow (CBF)", "setting": "[7]; bolus intraperitoneal injection", "result": 25, "unit": "%"},
      {"measurement": "reduction of CBF", "setting": "[7]; bolus intravenous injection", "result": "40-45%"},
      {"measurement": "mNSS", "setting": "[8]; H-UCN 25 μg/kg i.p. 60 min post-ICH, day 1, scale 0-18", "result": "6.55±0.26"},
      {"measurement": "mNSS", "setting": "[8]; H-UCN 25 μg/kg i.p. 60 min post-ICH, day 3, scale 0-18", "result": "4.68±0.29"},
      {"measurement": "mNSS", "setting": "[8]; H-UCN 25 μg/kg i.p. 60 min post-ICH, day 7, scale 0-18", "result": "2.00±0.26"},
      {"measurement": "mNSS", "setting": "[8]; L-UCN 2.5 μg/kg i.p. 60 min post-ICH, day 1, scale 0-18", "result": "3.86±0.70"},
      {"measurement": "mNSS", "setting": "[8]; L-UCN 2.5 μg/kg i.p. 60 min post-ICH, day 3, scale 0-18", "result": "1.71±0.55"},
      {"measurement": "mNSS", "setting": "[8]; L-UCN 2.5 μg/kg i.p. 60 min post-ICH, day 7, scale 0-18", "result": "1.63±0.46"},
      {"measurement": "mNSS", "setting": "[8]; UCN 0.05, 0.5 and 5 μg i.c.v. 1 h after collagenase ICH, over 7 days, most effective at 5 μg, vs ICH+Saline", "result": "dose-dependent reduction in the mNSS"}
    ]}
  ]
}
